This test has as its target T1, tau in human tauopathy brain tissue (neurofibrillary tangles) (Homo sapiens, UniProt P10636).
T1 construct: microtubule associated protein tau, human, endogenous in brain; also called NFT tau; tau pathology in AD, FTD and PSP cases; source: endogenous, formalin fixed paraffin embedded human brain tissue (hippocampal region; AD, FTD, PSP cases)
Kind of test: immunostaining of cells or tissue; paraffin sections of mouse brain (rTg4510 and nontransgenic; 4.5, 6, 8.5, 10 months) or of human hippocampal tissue; citrate antigen retrieval; MHT2 overnight; ABC/DAB detection.

T1 sequence (P10636 whole entry): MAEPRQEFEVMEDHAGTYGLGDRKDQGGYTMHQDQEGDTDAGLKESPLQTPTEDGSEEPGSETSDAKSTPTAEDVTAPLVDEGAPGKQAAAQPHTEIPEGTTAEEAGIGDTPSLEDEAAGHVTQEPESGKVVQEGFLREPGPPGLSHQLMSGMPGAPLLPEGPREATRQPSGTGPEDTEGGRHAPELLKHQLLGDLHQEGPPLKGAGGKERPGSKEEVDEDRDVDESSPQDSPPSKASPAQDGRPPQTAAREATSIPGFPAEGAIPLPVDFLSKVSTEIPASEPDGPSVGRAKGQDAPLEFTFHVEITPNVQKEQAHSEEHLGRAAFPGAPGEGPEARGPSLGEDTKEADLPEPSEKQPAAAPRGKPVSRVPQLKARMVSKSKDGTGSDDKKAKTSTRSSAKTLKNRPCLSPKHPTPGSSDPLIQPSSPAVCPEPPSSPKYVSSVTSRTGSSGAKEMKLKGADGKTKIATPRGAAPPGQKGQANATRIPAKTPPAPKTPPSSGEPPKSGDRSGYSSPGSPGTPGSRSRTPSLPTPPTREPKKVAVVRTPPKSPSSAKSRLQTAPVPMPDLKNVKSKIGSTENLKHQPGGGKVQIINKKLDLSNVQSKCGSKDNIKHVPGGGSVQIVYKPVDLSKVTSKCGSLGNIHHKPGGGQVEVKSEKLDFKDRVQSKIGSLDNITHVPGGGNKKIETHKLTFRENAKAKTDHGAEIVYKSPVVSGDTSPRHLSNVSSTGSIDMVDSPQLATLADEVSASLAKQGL

B1: MHT2 monoclonal antibody (antibody, V domains shown)
VH: EVQLQQSGAELVRPGALVKLSCKASGFNIKDYYMHWVKQRPEQGLEWIGWIDPENGNTIYDPKFQGKASITADTSSNTAYLQLSSLTSEDTAVYYCSSYYDYDYWG
VL: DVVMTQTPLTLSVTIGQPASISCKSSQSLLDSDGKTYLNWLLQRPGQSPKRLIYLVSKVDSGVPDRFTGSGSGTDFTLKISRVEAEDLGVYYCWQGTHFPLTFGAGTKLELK
notes: Isotype IgG1; For the BLI experiment only, the antibody was biotinylated with EZ-Link NHS-PEG4 and held on streptavidin sensors; also called antibody MHT2
On to B1, for which the binding result is listed as “binds”.

The record behind these values is article PMC6160062, “Designing antibodies against LRRK2-targeted tau epitopes” (PLoS ONE, 2018).
